Reference: publication PMC2570500 (EMBO Reports, 2008)

Target: N-terminal domain of Saccharomyces cerevisiae Hsp82 (1–210) (Saccharomyces cerevisiae, UniProt P02829 1-210)
Assay: NMR titration

N-terminal domain of Saccharomyces cerevisiae Hsp82 (1–210), sequence (P02829 1-210): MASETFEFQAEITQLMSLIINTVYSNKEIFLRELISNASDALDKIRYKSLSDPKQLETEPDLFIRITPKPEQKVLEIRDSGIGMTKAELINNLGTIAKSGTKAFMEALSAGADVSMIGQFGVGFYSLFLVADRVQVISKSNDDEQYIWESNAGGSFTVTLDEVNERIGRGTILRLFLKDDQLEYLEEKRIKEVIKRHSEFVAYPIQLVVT

Binder | Kd | binding result
CS domain of S. cerevisiae Sgt1 (176–290) (domain or fragment) ETAPQESPKFKIDWYQSSTSVTISLFTVNLPESKEQVNIYISPNDRRTLSISYQVPKSGSEFQYNAKLSHEVDPKAVSLKIFPKKLEITLSKIDSTQWKKLEEDILTESSRLSDE | 27 ± 3 µM | –
CS domain of Arabidopsis SGT1a (149–253), NMR sample (domain or fragment) TAKYRHEYYQKPEEVVVTVFAKGIPKQNVNIDFGEQILSVVIEVPGEDAYYLQPRLFGKIIPDKCKYEVLSTKIEICLAKADIITWASLEHGKGPAVLPKPNVSS | – | binds
